US20170342107A1 (REGENTS OF THE UNIVERSITY OF MINNESOTA, published 2017)
Like-named read-outs stand apart in the source and are kept apart here. Square brackets hold non-standard residues; d marks the D form. * marks the point of attachment. Bip = N[C@@H](Cc1ccc(-c2ccccc2)cc1)C(=O)O; Phe(4-I) = N[C@@H](Cc1ccc(I)cc1)C(=O)O; dPhe(4-I) = N[C@H](Cc1ccc(I)cc1)C(=O)O; 2Nal = N[C@@H](Cc1ccc2ccccc2c1)C(=O)O; d2Nal = N[C@H](Cc1ccc2ccccc2c1)C(=O)O; Bta = N[C@@H](Cc1csc2ccccc12)C(=O)O; Tic = O=C(O)[C@@H]1Cc2ccccc2CN1; dTic = O=C(O)[C@H]1Cc2ccccc2CN1; For = O=C*

Columns and labels:
[1] = target: T1, mouse melanocortin-1 receptor (mouse, UniProt Q01727 1-315); test: cell-based or functional assay
[2] = target: T2, mouse melanocortin-5 receptor (mouse, UniProt P41149 1-325); test: cell-based or functional assay
[3] = target: T1, mouse melanocortin-1 receptor; test: cell-based or functional assay; remark: listed apart in the source
[4] = target: T2, mouse melanocortin-5 receptor; test: cell-based or functional assay; remark: listed apart in the source
[5] = target: T3, mouse melanocortin-3 receptor (mouse, UniProt P33033 1-323); test: cell-based or functional assay
[6] = target: T4, mouse melanocortin-4 receptor (mouse, UniProt P56450 1-332); test: cell-based or functional assay
[7] = target: T4, mouse melanocortin-4 receptor; test: cell-based or functional assay; remark: listed apart in the source
[8] = target: T4, mouse melanocortin-4 receptor; test: cell-based or functional assay; remark: listed apart in the source
[9] = target: T3, mouse melanocortin-3 receptor; test: cell-based or functional assay; remark: listed apart in the source
[10] = target: T3, mouse melanocortin-3 receptor; test: 125I-NDP-MSH competitive displacement, HEK293 cells stably expressing mMC3R; negative = more potent than control
Text: (§1) A typical experiment utilized a 12-well format.

[11] = target: T4, mouse melanocortin-4 receptor; test: 125I-NDP-MSH competitive displacement, HEK293 cells stably expressing mMC4R; negative = more potent than control
Text: as §1

[12] = target: T3, mouse melanocortin-3 receptor; test: 125I-NDP-MSH competitive displacement, HEK293 cells stably expressing mMC3R
Text: as §1

[13] = target: T2, mouse melanocortin-5 receptor; test: cell-based or functional assay; remark: listed apart in the source
[14] = target: T3, mouse melanocortin-3 receptor; test: cell-based or functional assay; remark: listed apart in the source

T3 sequence (P33033 whole entry): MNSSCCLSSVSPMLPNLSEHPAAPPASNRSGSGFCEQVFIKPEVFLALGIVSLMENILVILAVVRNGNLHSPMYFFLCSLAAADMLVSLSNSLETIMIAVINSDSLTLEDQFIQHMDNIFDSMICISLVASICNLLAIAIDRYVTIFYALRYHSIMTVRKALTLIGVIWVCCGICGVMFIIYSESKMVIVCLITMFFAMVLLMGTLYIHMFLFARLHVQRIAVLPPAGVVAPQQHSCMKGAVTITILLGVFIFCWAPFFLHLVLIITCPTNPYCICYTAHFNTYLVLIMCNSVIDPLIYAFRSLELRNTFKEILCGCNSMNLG
T2 sequence (P41149 whole entry): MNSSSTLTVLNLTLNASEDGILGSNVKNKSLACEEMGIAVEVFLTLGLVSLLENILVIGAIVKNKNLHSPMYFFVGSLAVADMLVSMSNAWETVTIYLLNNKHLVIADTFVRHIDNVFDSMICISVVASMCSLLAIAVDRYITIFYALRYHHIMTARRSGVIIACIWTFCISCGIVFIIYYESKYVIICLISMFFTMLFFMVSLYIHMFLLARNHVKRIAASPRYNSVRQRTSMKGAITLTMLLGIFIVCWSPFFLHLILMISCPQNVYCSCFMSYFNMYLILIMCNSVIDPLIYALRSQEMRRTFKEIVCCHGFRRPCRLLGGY
T1 sequence (Q01727 whole entry): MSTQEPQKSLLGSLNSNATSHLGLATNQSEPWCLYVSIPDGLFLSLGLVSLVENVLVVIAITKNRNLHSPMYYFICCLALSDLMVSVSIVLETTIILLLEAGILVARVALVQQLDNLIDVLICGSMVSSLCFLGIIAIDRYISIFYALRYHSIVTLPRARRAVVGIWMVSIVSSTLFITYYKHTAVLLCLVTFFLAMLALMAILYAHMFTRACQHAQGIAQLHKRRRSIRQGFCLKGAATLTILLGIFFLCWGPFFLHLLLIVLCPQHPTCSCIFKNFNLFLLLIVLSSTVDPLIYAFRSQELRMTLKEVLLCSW
T4 sequence (P56450 whole entry): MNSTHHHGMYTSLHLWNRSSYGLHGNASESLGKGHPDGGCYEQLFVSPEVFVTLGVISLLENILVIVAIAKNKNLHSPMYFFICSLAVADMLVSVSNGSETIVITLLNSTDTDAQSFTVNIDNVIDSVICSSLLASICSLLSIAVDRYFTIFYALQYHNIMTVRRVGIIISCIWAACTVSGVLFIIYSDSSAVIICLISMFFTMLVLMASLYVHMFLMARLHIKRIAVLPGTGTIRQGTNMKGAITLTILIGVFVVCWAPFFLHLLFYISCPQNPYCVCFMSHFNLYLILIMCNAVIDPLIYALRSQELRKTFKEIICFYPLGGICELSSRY

Ac-HR[dPhe(4-I)][Tic]-NH2 [SKY6-24-2, Ac-His-Arg-(pI)DPhe-Tic-NH2]
fold increase in agonist potency against SKY5-146-7 [1]: 380 fold
fold increase in agonist potency against SKY5-146-7 [2]: 40 fold

Ac-[Tic]R[dPhe(4-I)][2Nal]-NH2 [SKY4-48-38, Ac-Tic-Arg-(pI)DPhe-Nal(2')-NH2]
Agonist, % of NDP-MSH maximal response [3]: 66 % @ 100 µM
Agonist, % of NDP-MSH maximal response [4]: 48 % @ 100 µM

Ac-HR[dPhe(4-I)][Bip]-NH2 [SKY4-48-3, Ac-His-Arg-(pI)DPhe-Bip-NH2]
Agonist, % of NDP-MSH maximal response [5]: 53 % @ 100 µM
Agonist, % of NDP-MSH maximal response [6]: 43 % @ 100 µM

Ac-FR[dPhe(4-I)][Bip]-NH2 [SKY4-48-7, Ac-Phe-Arg-(pI)DPhe-Bip-NH2]
Agonist, % of NDP-MSH maximal response [5]: 30 % @ 100 µM
Agonist, % of NDP-MSH maximal response [3]: 67 % @ 100 µM

B1: SKY5-146-7, Ac-His-Arg-(pI)DPhe-Trp-NH2 (peptide)
peptide: Ac-HR[dPhe(4-I)]W-NH2
SMILES: CC(=O)N[C@@H](Cc1c[nH]cn1)C(=O)N[C@@H](CCCNC(=N)N)C(=O)N[C@H](Cc1ccc(I)cc1)C(=O)N[C@@H](Cc1c[nH]c2ccccc12)C(N)=O
Agonist, % of NDP-MSH maximal response [7]: 29 % @ 100 µM
pA2 (antagonist) [7]: 6 pA2

Ac-[Bip]R[dPhe(4-I)][2Nal]-NH2 [SKY4-48-36, Ac-Bip-Arg-(pI)DPhe-Nal(2')-NH2]
Agonist, % of NDP-MSH maximal response [3]: 23 % @ 100 µM
Agonist, % of NDP-MSH maximal response [4]: 21 % @ 100 µM

Ac-[d2Nal]R[dPhe(4-I)][d2Nal]-NH2 [SKY4-48-49, Ac-DNal(2')-Arg-(pI)DPhe-DNal(2')-NH2]
Agonist, % of NDP-MSH maximal response [5]: 40 % @ 100 µM
Agonist, % of NDP-MSH maximal response [6]: 37 % @ 100 µM
Agonist, % of NDP-MSH maximal response [4]: 43 % @ 100 µM

B2: SKY5-148, For-DTic-(pI)Phe-DArg-DHis-NH2 (peptide)
peptide: For-[dTic][Phe(4-I)][dR][dH]-NH2
SMILES: N=C(N)NCCC[C@@H](NC(=O)[C@H](Cc1ccc(I)cc1)NC(=O)[C@H]1Cc2ccccc2CN1C=O)C(=O)N[C@H](Cc1c[nH]cn1)C(N)=O
Antagonist Ki [8]: > 3.1 µM
pA2 (antagonist) [9]: 6.8 pA2
Agonist, % of NDP-MSH maximal response [7]: 71 % @ 100 µM
pA2 (antagonist) [7]: 5.4 pA2

Ac-[Bta]R[dPhe(4-I)][Bip]-NH2 [SKY4-48-5, Ac-3Bal-Arg-(pI)DPhe-Bip-NH2]
Agonist, % of NDP-MSH maximal response [5]: 51 % @ 100 µM
Agonist, % of NDP-MSH maximal response [6]: 35 % @ 100 µM

Ac-RR[dPhe(4-I)][Bta]-NH2 [SKY4-48-10, Ac-Arg-Arg-(pI)DPhe-3Bal-NH2]
Agonist, % of NDP-MSH maximal response [6]: 24 % @ 100 µM
Fold Diff. (IC50 against SKY4-48-1) [10]: -52 fold
Fold Diff. (IC50 against SKY4-48-1) [11]: 1 fold

Ac-FR[dPhe(4-I)][Bta]-NH2 [SKY4-48-15, Ac-Phe-Arg-(pI)DPhe-3Bal-NH2]
IC50 [12]: 5.35 µM
Fold Diff. (IC50 against SKY4-48-1) [10]: -9 fold
Fold Diff. (IC50 against SKY4-48-1) [11]: 7 fold

Ac-HR[dPhe(4-I)][Bta]-NH2 [SKY4-48-11, Ac-His-Arg-(pI)DPhe-3Bal-NH2]
Agonist, % of NDP-MSH maximal response [6]: 47 % @ 100 µM
Fold Diff. (IC50 against SKY4-48-1) [10]: -15 fold
Fold Diff. (IC50 against SKY4-48-1) [11]: 2 fold

B3: SKY4-48-26, Ac-Arg-Arg-(pI)DPhe-Phe-NH2 (peptide)
peptide: Ac-RR[dPhe(4-I)]F-NH2
SMILES: CC(=O)N[C@@H](CCCNC(=N)N)C(=O)N[C@@H](CCCNC(=N)N)C(=O)N[C@H](Cc1ccc(I)cc1)C(=O)N[C@@H](Cc1ccccc1)C(N)=O
Fold Diff. (IC50 against SKY4-48-1) [10]: -8 fold
Fold Diff. (IC50 against SKY4-48-1) [11]: 4 fold

B4: SKY5-121, Ac-DTrp-DArg-Phe-DHis-NH2 (peptide)
peptide: Ac-[dW][dR]F[dH]-NH2
SMILES: CC(=O)N[C@H](Cc1c[nH]c2ccccc12)C(=O)N[C@H](CCCNC(=N)N)C(=O)N[C@@H](Cc1ccccc1)C(=O)N[C@H](Cc1c[nH]cn1)C(N)=O
Agonist, % of NDP-MSH maximal response [13]: 29 % @ 100 µM

Ac-[2Nal]R[dPhe(4-I)][Tic]-NH2 [SKY4-48-24, Ac-Nal(2')-Arg-(pI)DPhe-Tic-NH2]
Agonist, % of NDP-MSH maximal response [6]: 33 % @ 100 µM

Ac-[d2Nal]R[dPhe(4-I)][2Nal]-NH2 [SKY5-146-5, Ac-DNal(2')-Arg-(pI)DPhe-Nal(2')-NH2]
Agonist, % of NDP-MSH maximal response [5]: 43 % @ 100 µM
Agonist, % of NDP-MSH maximal response [6]: 39 % @ 100 µM
Agonist, % of NDP-MSH maximal response [4]: 40 % @ 100 µM

Ac-[2Nal]R[dPhe(4-I)][d2Nal]-NH2 [SKY4-48-48, Ac-Nal(2')-Arg-(pI)DPhe-DNal(2')-NH2]
Agonist, % of NDP-MSH maximal response [5]: 31 % @ 100 µM
Agonist, % of NDP-MSH maximal response [3]: 53 % @ 100 µM
Agonist, % of NDP-MSH maximal response [4]: 40 % @ 100 µM

Ac-HR[dPhe(4-I)][d2Nal]-NH2 [SKY4-48-43, Ac-His-Arg-(pI)DPhe-DNal(2')-NH2]
Agonist, % of NDP-MSH maximal response [6]: 50 % @ 100 µM
Agonist, % of NDP-MSH maximal response [4]: 47 % @ 100 µM

Ac-HR[dPhe(4-I)][2Nal]-NH2 [SKY4-48-35, Ac-His-Arg-(pI)DPhe-Nal(2')-NH2]
Agonist, % of NDP-MSH maximal response [5]: 57 % @ 100 µM
Agonist, % of NDP-MSH maximal response [6]: 35 % @ 100 µM

Ac-[Tic]R[dPhe(4-I)][d2Nal]-NH2 [SKY4-48-46, Ac-Tic-Arg-(pI)DPhe-DNal(2')-NH2]
Agonist, % of NDP-MSH maximal response [5]: 42 % @ 100 µM
Agonist, % of NDP-MSH maximal response [6]: 33 % @ 100 µM
Agonist, % of NDP-MSH maximal response [4]: 74 % @ 100 µM

Ac-[d2Nal]R[dPhe(4-I)][Bip]-NH2 [SKY5-146-2, Ac-DNal(2')-Arg-(pI)DPhe-Bip-NH2]
Agonist, % of NDP-MSH maximal response [5]: 30 % @ 100 µM
Agonist, % of NDP-MSH maximal response [6]: 42 % @ 100 µM

Ac-[Tic]R[dPhe(4-I)][Bip]-NH2 [SKY5-146-1, Ac-Tic-Arg-(pI)DPhe-Bip-NH2]
Agonist, % of NDP-MSH maximal response [3]: 39 % @ 100 µM

Ac-SYSMEHRFWGKPV-NH2 [SKY2-125-5, (Arg7, Phe8) α-MSH, Ac-Ser-Tyr-Ser-Met-Glu-His-Arg-Phe-Trp-Gly-Lys-Pro-Val-NH2]
fold decreased agonist potency against α-MSH [14]: 45000 fold

Ac-[Bta]R[dPhe(4-I)][d2Nal]-NH2 [SKY4-48-45, Ac-3Bal-Arg-(pI)DPhe-DNal(2')-NH2]
Agonist, % of NDP-MSH maximal response [5]: 34 % @ 100 µM
Agonist, % of NDP-MSH maximal response [6]: 38 % @ 100 µM
Agonist, % of NDP-MSH maximal response [3]: 36 % @ 100 µM
Agonist, % of NDP-MSH maximal response [4]: 41 % @ 100 µM

B5: SKY5-142-A, For-DPhe-(pI)Phe-DArg-DHis-NH2 (peptide)
peptide: For-[dF][Phe(4-I)][dR][dH]-NH2
SMILES: N=C(N)NCCC[C@@H](NC(=O)[C@H](Cc1ccc(I)cc1)NC(=O)[C@@H](Cc1ccccc1)NC=O)C(=O)N[C@H](Cc1c[nH]cn1)C(N)=O
Antagonist Ki [8]: > 3.1 µM
pA2 (antagonist) [9]: 6.7 pA2
Agonist, % of NDP-MSH maximal response [7]: 47 % @ 100 µM

Ac-RR[dPhe(4-I)][Bip]-NH2 [SKY4-48-2, Ac-Arg-Arg-(pI)DPhe-Bip-NH2]
Agonist, % of NDP-MSH maximal response [5]: 45 % @ 100 µM
Agonist, % of NDP-MSH maximal response [6]: 32 % @ 100 µM
Agonist, % of NDP-MSH maximal response [3]: 44 % @ 100 µM

Ac-[Tic]R[dPhe(4-I)][Bta]-NH2 [SKY4-48-14, Ac-Tic-Arg-(pI)DPhe-3Bal-NH2]
Agonist, % of NDP-MSH maximal response [3]: 38 % @ 100 µM
